{"source": "paper PMC12363175", "target": "BANAL-20-52 S ectodomain with stabilizing mutations", "test": "AUC"}
{"substance": "peptidase domain (PD) of hACE2 (from UniProt Q9BYF1 19-615) (domain or fragment)", "values": [{"measurement": "stoichiometry N (hACE2 molecules per S trimer)", "result": 2}]}
